From patent publication US20210388087A1 (Chugai, published 2021)
Residue numbers refer to the chain shown, from its start. In names and notes the source's numbering stands.

T1: Human CD3eg linker (human)
T1 construct: Single-chain construct; also called recombinant human CD3
T1 chain: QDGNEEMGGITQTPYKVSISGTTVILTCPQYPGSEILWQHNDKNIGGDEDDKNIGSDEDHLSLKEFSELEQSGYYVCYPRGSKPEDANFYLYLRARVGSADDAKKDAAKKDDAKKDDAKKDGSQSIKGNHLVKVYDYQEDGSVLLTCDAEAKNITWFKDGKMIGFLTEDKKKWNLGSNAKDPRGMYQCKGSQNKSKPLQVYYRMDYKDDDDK

B1: H183/L072 VL P56R (antibody, name in Kabat numbering, V domains shown)
VH: QVQLVESGGGLVQPGRSLRLSCAASGFTFSNAWMHWVRQAPGKGLEWVAQIKDKGNAYAAYYAPSVKGRFTISRDDSKNSIYLQMNSLKTEDTAVYYCHYVHYASASTVLPAFGVDAWGQGTTVTVSS
VL: DIVMTQSPLSLPVTPGEPASISCQASQELVHMNRNTYLHWYQQKPGQAPRLLIYKVSNRFRGVPDRFSGSGSGTDFTLKISRVEAEDVGVYYCAQGTSVPFTFGQGTKLEIK
B2: H183/L072 VL Q27I (antibody, name in Kabat numbering, V domains shown)
VH: B1 VH
VL: B1 VL with Q27I, R61P
B3: H183/L072 VL Q24T (antibody, name in Kabat numbering, V domains shown)
VH: B1 VH
VL: B1 VL with Q24T, R61P
B4: H183/L072 VL P95S (antibody, name in Kabat numbering, V domains shown)
VH: B1 VH
VL: B1 VL with R61P, P100S
B5: H183/L072 VL Q27F (antibody, name in Kabat numbering, V domains shown)
VH: B1 VH
VL: B1 VL with Q27F, R61P
B6: H183/L072 VL Q24R (antibody, name in Kabat numbering, V domains shown)
VH: B1 VH
VL: B1 VL with Q24R, R61P
B7: H183/L072 VL Q24I (antibody, name in Kabat numbering, V domains shown)
VH: B1 VH
VL: B1 VL with Q24I, R61P
B8: H183/L072 VL Q27H (antibody, name in Kabat numbering, V domains shown)
VH: B1 VH
VL: B1 VL with Q27H, R61P
B9: H183/L072 VL Q27T (antibody, name in Kabat numbering, V domains shown)
VH: B1 VH
VL: B1 VL with Q27T, R61P
B10: H183/L072 VL Q27M (antibody, name in Kabat numbering, V domains shown)
VH: B1 VH
VL: B1 VL with Q27M, R61P
B11: H183/L072 VL Q24Y (antibody, name in Kabat numbering, V domains shown)
VH: B1 VH
VL: B1 VL with Q24Y, R61P
B12: H183/L072 VL P95K (antibody, name in Kabat numbering, V domains shown)
VH: B1 VH
VL: B1 VL with R61P, P100K
B13: H183/L072 VL Q24N (antibody, name in Kabat numbering, V domains shown)
VH: B1 VH
VL: B1 VL with Q24N, R61P
B14: H183/L072 VL Q24F (antibody, name in Kabat numbering, V domains shown)
VH: B1 VH
VL: B1 VL with Q24F, R61P
B15: H183/L072 VL Q27E (antibody, name in Kabat numbering, V domains shown)
VH: B1 VH
VL: B1 VL with Q27E, R61P
B16: H183/L072 VL Q24A (antibody, name in Kabat numbering, V domains shown)
VH: B1 VH
VL: B1 VL with Q24A, R61P
B17: H183/L072 VL Q27K (antibody, name in Kabat numbering, V domains shown)
VH: B1 VH
VL: B1 VL with Q27K, R61P
B18: H183/L072 VL Q24E (antibody, name in Kabat numbering, V domains shown)
VH: B1 VH
VL: B1 VL with Q24E, R61P
B19: H183/L072 VL P56S (antibody, name in Kabat numbering, V domains shown)
VH: B1 VH
VL: B1 VL with R61S
B20: H183/L072 VL Q27S (antibody, name in Kabat numbering, V domains shown)
VH: B1 VH
VL: B1 VL with Q27S, R61P
B21: H183/L072 VL Q27W (antibody, name in Kabat numbering, V domains shown)
VH: B1 VH
VL: B1 VL with Q27W, R61P
B22: H183/L072 VL Q27G (antibody, name in Kabat numbering, V domains shown)
VH: B1 VH
VL: B1 VL with Q27G, R61P
B23: H183/L072 VL Q24V (antibody, name in Kabat numbering, V domains shown)
VH: B1 VH
VL: B1 VL with Q24V, R61P
B24: H183/L072 VL Q27D (antibody, name in Kabat numbering, V domains shown)
VH: B1 VH
VL: B1 VL with Q27D, R61P
B25: H183/L072 VL Q24D (antibody, name in Kabat numbering, V domains shown)
VH: B1 VH
VL: B1 VL with Q24D, R61P
B26: H183/L072 VL Q27R (antibody, name in Kabat numbering, V domains shown)
VH: B1 VH
VL: B1 VL with Q27R, R61P
B27: H183/L072 VL P95Q (antibody, name in Kabat numbering, V domains shown)
VH: B1 VH
VL: B1 VL with R61P, P100Q
B28: H183/L072 VL P95H (antibody, name in Kabat numbering, V domains shown)
VH: B1 VH
VL: B1 VL with R61P, P100H
B29: H183/L072 VL Q27N (antibody, name in Kabat numbering, V domains shown)
VH: B1 VH
VL: B1 VL with Q27N, R61P
B30: H183/L072 VL Q24H (antibody, name in Kabat numbering, V domains shown)
VH: B1 VH
VL: B1 VL with Q24H, R61P
B31: H183/L072 VL Q24L (antibody, name in Kabat numbering, V domains shown)
VH: B1 VH
VL: B1 VL with Q24L, R61P
B32: H183/L072 VL Q24W (antibody, name in Kabat numbering, V domains shown)
VH: B1 VH
VL: B1 VL with Q24W, R61P
B33: H183/L072 VL Q27V (antibody, name in Kabat numbering, V domains shown)
VH: B1 VH
VL: B1 VL with Q27V, R61P
B34: H183/L072 VL P56W (antibody, name in Kabat numbering, V domains shown)
VH: B1 VH
VL: B1 VL with R61W
B35: H183/L072 VL Q27L (antibody, name in Kabat numbering, V domains shown)
VH: B1 VH
VL: B1 VL with Q27L, R61P
B36: H183/L072 VL P56T (antibody, name in Kabat numbering, V domains shown)
VH: B1 VH
VL: B1 VL with R61T
B37: H183/L072 VL Q24G (antibody, name in Kabat numbering, V domains shown)
VH: B1 VH
VL: B1 VL with Q24G, R61P
B38: H183/L072 VL Q27A (antibody, name in Kabat numbering, V domains shown)
VH: B1 VH
VL: B1 VL with Q27A, R61P
B39: H183/L072 VL Q24S (antibody, name in Kabat numbering, V domains shown)
VH: B1 VH
VL: B1 VL with Q24S, R61P
B40: H183/L072 VL P56V (antibody, name in Kabat numbering, V domains shown)
VH: B1 VH
VL: B1 VL with R61V
B41: H183/L072 VL P95E (antibody, name in Kabat numbering, V domains shown)
VH: B1 VH
VL: B1 VL with R61P, P100E
B42: H183/L072 VL P95D (antibody, name in Kabat numbering, V domains shown)
VH: B1 VH
VL: B1 VL with R61P, P100D
B43: H183/L072 VL Q24M (antibody, name in Kabat numbering, V domains shown)
VH: B1 VH
VL: B1 VL with Q24M, R61P
B44: H183/L072 VL P95T (antibody, name in Kabat numbering, V domains shown)
VH: B1 VH
VL: B1 VL with R61P, P100T
B45: H183/L072 VL Q24K (antibody, name in Kabat numbering, V domains shown)
VH: B1 VH
VL: B1 VL with Q24K, R61P

Target: T1, Human CD3eg linker
Experiment: SPR; fold vs parent H183/L072

fold change of affinity [fold] | Binder
5.5 | B1
0.8 | B2
1.1 | B3
0 | B4
0.9 | B5
1 | B6
1.2 | B7
1.2 | B8
1 | B9
1.2 | B10
1 | B11
0 | B12
1.1 | B13
0.9 | B14
1.1 | B15
1.1 | B16
0.8 | B17
0 | B18
4.1 | B19
1.1 | B20
0.7 | B21
1 | B22
1.2 | B23

fold change of affinity [fold] | Binder
1.1 | B24
1.2 | B25
1 | B26
0 | B27
0 | B28
1 | B29
1.1 | B30
1.2 | B31
1.1 | B32
0.9 | B33
3 | B34
1 | B35
3.9 | B36
1.2 | B37
1.2 | B38
1.1 | B39
3.4 | B40
0 | B41
0 | B42
1.1 | B43
0 | B44
1 | B45
